Laboratory results as given in US20140302026A1 (published 2014).

B1: human NC-1 (hNC-1) trimer of collagen 18 (other)
chain: SGVRLWATRQAMLGQVHEVPEGWLIFVAEQEELYVRVQNGFRKVQLEARTPLPRGTDNEVAALQPPVVQLHDSNPYPRREHPHPTARPWRADDILASPPRLPEPQPYPGAPHHSSYVHLRPARPTSPPAHSHRDFQPVLHLVALNSPLSGGMRGIRGADFQCFQQARAVGLAGTFRAFLSSRLQDLYSIVRRADRAAVPIVNLKDELLFPSWEALFSGSEGPLKPGARIFSFDGKDVLRHPTWPQKSVWHGSDPNGRRLTESYCETWRTEAPSATGQASSLLGGRLLGQSAASCHHAYIVLCIENSFMTASK
B2: Human VEGF (R&D) (ligand)
chain: APMAEGGGQNHHEVVKFMDVYQRSYCHPIETLVDIFQEYPDEIEYIFKPSCVPLMRCGGCCNDEGLECVPTEESNITMQIMRIKPHQGQHIGEMSFLQHNKCECRPKKDRARQENPCGPCSERRKHLFVQDPQTCKCSCKNTDSRCKARQLELNERTCRCDKPRR

Legend:
[1] = target: artificial endostatin dimer (UniProt P39060); test: SPR (Biacore)
fibronectin = fibronectin (UniProt P02751 32-2477); test: SPR (Biacore)

Row | Molecule | Kd [1] [nM] | Kd (fibronectin) [nM]
1 | fibronectin (from UniProt P02751 32-2477) | 4.84 | –
2 | B1 | – | 8.4
3 | B2 | – | 1.35
